Where “and” joins values, the source holds several entries; their conditions need not be identical. Equal values may be shown once.
Details: pH 7, Sodium phosphate 10 mM, whole UniProt chain shown
[1] = Homo sapiens, 20 °C, Thermal, DSC

| Protein | denaturant midpoint (higher = more stable) (Homo sapiens, 20 °C, GdnHCl, CD) [M] | denaturant midpoint (higher = more stable) (Homo sapiens, 20 °C, GdnHCl, Fluorescence) | heat capacity change of unfolding [1] | unfolding free energy [1] | denaturant midpoint (higher = more stable) (Homo sapiens, 20 °C, Urea, CD) [M] | denaturant midpoint (higher = more stable) (Homo sapiens, 20 °C, Urea, Fluorescence) | heat capacity change of unfolding (Homo sapiens, Thermal, DSC) | unfolding enthalpy (calorimetric) (Homo sapiens, Thermal, DSC) | denaturant midpoint (higher = more stable) (Bos taurus, 20 °C, GdnHCl, Fluorescence) | denaturant midpoint (higher = more stable) (Bos taurus, 20 °C, Urea, Fluorescence) |
| --- | --- | --- | --- | --- | --- | --- | --- | --- | --- | --- |
| Gamma-crystallin S wild type, P22914 (protein) MSKTGTKITFYEDKNFQGRRYDCDCDCADFHTYLSRCNSIKVEGGTWAVYERPNFAGYMYILPQGEYPEYQRWMGLNDRLSSCRAVHLPSGGQYKIQIFEKGDFSGQMYETTEDCPSIMEQFHMREIHSCKVLEGVWIFYELPNYRGRQYLLDKKEYRKPIDWGAASPAVQSFRRIVE | 1.9 | 2.6 M and 2.5 M | 1.79 kcal/mol/K and 0.84 kcal/mol/K and 1.08 kcal/mol/K | 20.1 kcal/mol and 10 kcal/mol and 11.5 kcal/mol | 7 | 8 M and 7.6 M | 1.79 kcal/mol/K and 0.84 kcal/mol/K and 1.08 kcal/mol/K | 179 kcal/mol and 90.8 kcal/mol and 103 kcal/mol |  |  |
| Gamma-crystallin S wild type, P06504 (protein) MSKAGTKITFFEDKNFQGRHYDSDCDCADFHMYLSRCNSIRVEGGTWAVYERPNFAGYMYILPRGEYPEYQHWMGLNDRLSSCRAVHLSSGGQYKLQIFEKGDFNGQMHETTEDCPSIMEQFHMREVHSCKVLEGAWIFYELPNYRGRQYLLDKKEYRKPVDWGAASPAVQSFRRIVE |  |  |  |  |  |  |  |  | 2.1 M and 1.8 M | 7 M and 6.6 M |

Reference: FireProtDB (doi:10.1016/s0301-4622(00)00161-7)
